IntAct's records for PubMed 27273569

Biological target: wsb1_human WSB1 (UniProt Q9Y6I7)
Chain of UniProt Q9Y6I7 (Q9Y6I7 whole entry): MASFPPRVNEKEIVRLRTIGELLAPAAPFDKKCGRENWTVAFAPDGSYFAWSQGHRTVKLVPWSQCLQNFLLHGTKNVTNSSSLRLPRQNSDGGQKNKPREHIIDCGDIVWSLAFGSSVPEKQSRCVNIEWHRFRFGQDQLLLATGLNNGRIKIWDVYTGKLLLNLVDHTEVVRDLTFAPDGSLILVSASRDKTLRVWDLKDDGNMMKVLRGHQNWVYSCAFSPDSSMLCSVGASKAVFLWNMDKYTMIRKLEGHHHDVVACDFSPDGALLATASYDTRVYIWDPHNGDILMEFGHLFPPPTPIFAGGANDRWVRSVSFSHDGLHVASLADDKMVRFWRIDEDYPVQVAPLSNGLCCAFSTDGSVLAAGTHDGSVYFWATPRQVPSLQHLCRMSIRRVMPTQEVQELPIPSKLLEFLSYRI

effect of a mutation on the interaction: with no effect
Substance: Leucine-rich repeat serine/threonine-protein kinase 2 (Homo sapiens), Q5S007 G2019S
